Laboratory results taken from PMC6112790, “MicroED structure of the NaK ion channel reveals a Na^+ partition process into the selectivity filter” (Communications Biology, 2018).

Target: the molecule itself
Assay: crystal structure; MicroED (electron diffraction, continuous rotation) of nano-crystals grown in Na+ buffers with MPD, protein in DM detergent; 11 crystals merged; 2.5 Å; space group I4; tetramer on the four-fold axis

B1: NaK–∆19 (NaK ion channel from Bacillus cereus with the first 19 residues truncated) (domain or fragment)
chain: KDKEFQVLFVLTILTLISGTIFYSTVEGLRPIDALYFSVVTLTTVGDGNFSPQTDFGKIFTILYIFIGIGLVFGFIHKLAVNVQLPSILSNRKKE
notes: NaK channel, Bacillus cereus, wild type with the first 19 residues truncated (about 10-kDa monomer); also called molA; molB
stoichiometry N: 4
